The record followed here is publication PMC13038412, “Hetero-oligomerization drives structural plasticity of eukaryotic peroxiredoxins” (Nature Chemical Biology, 2026).

Data set [1] concerns the target roGFP2-LiPrx1 (L. infantum). The experiment in a line: native gel or EMSA; clear native PAGE of lysates from Δtsa1Δtsa2 yeast coexpressing a roGFP2-peroxiredoxin fusion with an empty vector or an unfused peroxiredoxin; imaged for GFP fluorescence. In general terms: Mobility shift assays separate free from complexed probe on a gel.
The target of data set [2] is T1, His6-Tsa2-EPEA (S. cerevisiae).
T1 sequence (Q04120 1-196, looked up): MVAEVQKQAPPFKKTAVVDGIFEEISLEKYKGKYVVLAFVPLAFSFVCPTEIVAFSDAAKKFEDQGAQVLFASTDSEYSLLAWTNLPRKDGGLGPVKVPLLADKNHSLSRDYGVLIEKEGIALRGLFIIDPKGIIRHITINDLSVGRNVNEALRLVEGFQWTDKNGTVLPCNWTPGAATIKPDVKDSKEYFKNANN
The experiment in a line: negative-stain EM; 0.02 mg/ml purified sample in 10 mM HEPES/NaOH pH 8, 137 mM NaCl, 2 mM KCl; 2% uranyl acetate; hetero-oligomer: the 0.88 mol/mol fraction.

For data set [3] the target is unchanged. The experiment in a line: MALDI-TOF MS of disulfide-linked dimers; purified homo-oligomers and three tandem-purified hetero-oligomer fractions in 0.1% TFA, DHAP matrix, linear positive mode; dimers reducible with DTT.
Data set [4] has as its target roGFP2-AtBAS1B (A. thaliana). The experiment in a line: native gel or EMSA; clear native PAGE of lysates from Δtsa1Δtsa2 yeast coexpressing a roGFP2-peroxiredoxin fusion with an empty vector or an unfused peroxiredoxin; imaged for GFP fluorescence.
In a further data set the target is T2, His6-Tsa2 (S. cerevisiae, UniProt Q04120 1-196).
T2 construct: Tsa2, Prx1/AhpC-type peroxiredoxin of Saccharomyces cerevisiae; TSA2 from pET15b/His6-TSA2; calculated mass of His6-Tsa2 23.8 kDa; also called His6-tagged Tsa2; His-Tsa2; source: E. coli SHuffle T7 Express, purified (Ni-NTA) from pET15b; or coexpressed with Strep-Tsa1 / Strep-Tsa1ΔCR from pCOLADuet and tandem purified (Ni-NTA, StrepTactin); not shown: His6, N-terminal, kept
T2 sequence (looked up): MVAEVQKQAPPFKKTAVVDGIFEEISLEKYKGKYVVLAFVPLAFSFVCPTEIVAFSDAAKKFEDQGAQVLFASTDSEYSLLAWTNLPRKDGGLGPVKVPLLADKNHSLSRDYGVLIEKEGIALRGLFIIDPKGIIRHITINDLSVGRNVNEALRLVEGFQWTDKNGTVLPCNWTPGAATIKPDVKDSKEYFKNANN
The experiment in a line: pull-down; both genes coexpressed from one pCOLADuet plasmid in E. coli; tandem-affinity purification Ni-NTA then StrepTactin, or vice versa; eluates on reducing SDS-PAGE, western blot (semiquantitative, calibrated with individually purified proteins). The settings on record: partners not purified. Background: Immunoblotting shows a protein as a band on a membrane.

Data set [5] concerns the molecule itself. The experiment in a line: MALDI-TOF MS of disulfide-linked dimers; purified homo-oligomers and three tandem-purified hetero-oligomer fractions in 0.1% TFA, DHAP matrix, linear positive mode; dimers reducible with DTT.
Data set [6] deals with the molecule itself. The experiment in a line: negative-stain EM; 0.02 mg/ml purified sample in 10 mM HEPES/NaOH pH 8, 137 mM NaCl, 2 mM KCl; 2% uranyl acetate; hetero-oligomer: the 0.88 mol/mol fraction.
Data set [7] concerns the molecule itself. The experiment in a line: native gel or EMSA; clear native PAGE (3-12%) of yeast lysates, imaged for GFP fluorescence; roGFP2 fusions expressed from the genomic loci; cells untreated or treated with 1 mM H2O2 for the indicated times; lysis with 20 mM NEM.
Data set [8] deals with the molecule itself. The experiment in a line: native gel or EMSA; clear native PAGE of lysates from Δtsa1Δtsa2 yeast coexpressing a roGFP2-peroxiredoxin fusion with an empty vector or an unfused peroxiredoxin; imaged for GFP fluorescence.
Data set [9] concerns the molecule itself. The experiment in a line: mass photometry; 5 µM purified samples incubated 15 min at 20, 30, 40 or 45 °C, diluted 25x into 10 mM HEPES/NaOH pH 8, 137 mM NaCl, 2 mM KCl; Refeyn OneMP; disulfide-linked oxidation form.

One may read the stoichiometry N as a count of units in the complex or per binding partner. In turn, roGFP2-LiPrx1 (enzyme) showed a stoichiometry N in data set [1] of 10.
For His6-Tsa2-EPEA (enzyme), the stoichiometry N was 10 in data set [2] and 2 in data set [3].
In the case of roGFP2-AtBAS1B (enzyme), in data set [4], the stoichiometry N turned out to be 10.

B1: Strep-Tsa1 (enzyme, S. cerevisiae, UniProt P34760 1-196, looked up)
chain: MVAQVQKQAPTFKKTAVVDGVFDEVSLDKYKGKYVVLAFIPLAFTFVCPTEIIAFSEAAKKFEEQGAQVLFASTDSEYSLLAWTNIPRKEGGLGPINIPLLADTNHSLSRDYGVLIEEEGVALRGLFIIDPKGVIRHITINDLPVGRNVDEALRLVEAFQWTDKNGTVLPCNWTPGAATIKPTVEDSKEYFEAANK
notes: Tsa1, Prx1/AhpC-type peroxiredoxin of Saccharomyces cerevisiae; TSA1 subcloned from pET15b/His-TSA1; calculated mass of Strep-Tsa1 22.9 kDa; Dimer-decamer equilibrium; also called Strep-tagged Tsa1; Tsa1 homo-oligomer; source: E. coli SHuffle T7 Express, purified (StrepTactin) from pET45b; or coexpressed with His6-Tsa2 / His6-Tsa2-EPEA from pCOLADuet-1 and tandem purified (Ni-NTA, StrepTactin); …
Consider B1, for which the “stoichiometry N” value was around 1 Strep-Tsa1 per His6-Tsa2 in the data set with His6-Tsa2, 2 in data set [5] and 10 in data set [6].

B2: roGFP2-Tsa1 (enzyme, S. cerevisiae, UniProt P34760 1-196, looked up)
chain: MVAQVQKQAPTFKKTAVVDGVFDEVSLDKYKGKYVVLAFIPLAFTFVCPTEIIAFSEAAKKFEEQGAQVLFASTDSEYSLLAWTNIPRKEGGLGPINIPLLADTNHSLSRDYGVLIEEEGVALRGLFIIDPKGVIRHITINDLPVGRNVDEALRLVEAFQWTDKNGTVLPCNWTPGAATIKPTVEDSKEYFEAANK
notes: Tsa1 of Saccharomyces cerevisiae, roGFP2-tagged version replacing TSA1 at its endogenous locus; source: S. cerevisiae, gene integrated at the TSA1 genomic locus under the native promoter, in lysate
In the case of B2, the “stoichiometry N” value in data set [7] was determined as 2.

B3: roGFP2-AtBAS1A (enzyme, A. thaliana, UniProt Q96291 66-266, looked up)
chain: KAQADDLPLVGNKAPDFEAEAVFDQEFIKVKLSDYIGKKYVILFFYPLDFTFVCPTEITAFSDRHSEFEKLNTEVLGVSVDSVFSHLAWVQTDRKSGGLGDLNYPLISDVTKSISKSFGVLIHDQGIALRGLFIIDKEGVIQHSTINNLGIGRSVDETMRTLQALQYIQENPDEVCPAGWKPGEKSMKPDPKLSKEYFSAI
notes: AtBAS1A, Prx1/AhpC-type peroxiredoxin of the chloroplast stroma of Arabidopsis thaliana; source: Δtsa1Δtsa2 yeast, expressed from a plasmid, in lysate
Regarding B3, the “stoichiometry N” value in data set [8] worked out at 2.

B4: His6-GFP-TEV-Tsa2 (enzyme, S. cerevisiae, UniProt Q04120 1-196, looked up)
chain: MVAEVQKQAPPFKKTAVVDGIFEEISLEKYKGKYVVLAFVPLAFSFVCPTEIVAFSDAAKKFEDQGAQVLFASTDSEYSLLAWTNLPRKDGGLGPVKVPLLADKNHSLSRDYGVLIEKEGIALRGLFIIDPKGIIRHITINDLSVGRNVNEALRLVEGFQWTDKNGTVLPCNWTPGAATIKPDVKDSKEYFKNANN
notes: Tsa2 of Saccharomyces cerevisiae, behind His6, GFP and a TEV site; Probably made in E. coli (AhpC contamination was detected); also called Tsa2 with an N-terminal GFP tag; not shown: His6, N-terminal, kept; GFP, N-terminal, kept
For B4, the binding result in [9] is “binds”.
